Measured values: patent US20150056219A1 (published 2015)
Where a chain is given by its changes, count along the chain named.

T1: human HVEM (human, UniProt Q92956 39-202)
T1 chain: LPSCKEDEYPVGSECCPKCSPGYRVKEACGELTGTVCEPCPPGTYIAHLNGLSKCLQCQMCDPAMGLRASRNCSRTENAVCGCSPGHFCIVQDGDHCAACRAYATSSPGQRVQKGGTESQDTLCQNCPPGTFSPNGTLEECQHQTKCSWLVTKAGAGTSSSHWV

T2: mouse HVEM (mouse, UniProt Q80WM9 39-206)
T2 chain: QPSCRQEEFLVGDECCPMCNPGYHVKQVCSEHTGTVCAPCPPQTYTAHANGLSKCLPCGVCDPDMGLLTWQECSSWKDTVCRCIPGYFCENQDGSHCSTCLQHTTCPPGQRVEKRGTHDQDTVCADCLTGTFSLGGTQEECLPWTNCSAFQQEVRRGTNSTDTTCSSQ

B1: wt (ligand)
chain: LIQERRSHEVNPAAHLTGANSSLTGSGGPLLWETQLGLAFLRGLSYHDGALVVTKAGYYYIYSKVQLGGVGCPLGLASTITHGLYKRTPRYPEELELLVSQQSPCGRATSSSRVWWDSSFLGGVVHLEAGEKVVVRVLDERLVRLRDGTRSYFGAFMV
B2: hLTbR (receptor)
chain: QAVPPYASENQTCRDQEKEYYEPQHRICCSRCPPGTYVSAKCSRIRDTVCATCAENSYNEHWNYLTICQLCRPCDPVMGLEEIAPCTSKRKTQCRCQPGMFCAAWALECTHCELLSDCPPGTEAELKDEVGKGNNHCVPCKAGHFQNTSSPSARCQPHTRCENQGLVEAAPGTAQSDTTCKNPLEPLPPEMSGTMLM
B3: hHVEM (receptor)
chain: T1 chain
B4: mHVEM (receptor)
chain: T2 chain
B5: mLTbR (receptor)
chain: QLVPPYRIENQTCWDQDKEYYEPMHDVCCSRCPPGEFVFAVCSRSQDTVCKTCPHNSYNEHWNHLSTCQLCRPCDIVLGFEEVAPCTSDRKAECRCQPGMSCVYLDNECVHCEEERLVLCQPGTEAEVTDEIMDTDVNCVPCKPGHFQNTSSPRARCQPHTRCEIQGLVEAAPGTSYSDTICKNPPEPGAMLL
B6: m4-16 (protein)
chain: RRSHEVNPAAHLTGANFSLTGSGGPLLWETQLGQAFLRGLSYHDGALVVTKAGYYYIYSKVQLGGVGCPLGLASTITHGLYKRTPRYPEELELLVSQQSPCGRATSSSRVWWDSSFLGGVVHLEAGEEVVVRVLDDRLVRLRDGTRSYFGAFMV
B7: m4-7 (protein)
chain: B6 chain with F17S, L19S, Q34L, G64R, D136E
B8: m4-14 (protein)
chain: B6 chain with F17S, Q34L, R38S, G64R, D135G, D136E
B9: wild type human LIGHT (ligand)
chain: B1 chain

target: DcR3

Binder	Kd [nM]
B1	0.6

target: m4-52

Binder	Kd [nM]
B2	1.12
B3	1.42
B4	2.44
B5	0.68

Target: T1, human HVEM

Binder	Kd [nM]
B6	2.24
B7	0.92
B8	38.5

target: human LTβR (human, UniProt P36941 31-227)

Binder	Kd [nM]
B6	0.13
B7	0.157
B8	0.16
B9	1.3

target: mouse LTβR (mouse, UniProt P50284 31-223)

Binder	Kd [nM]
B6	0.192
B7	0.118
B8	0.094

Target: T2, mouse HVEM

Binder	Kd [nM]
B6	2.22
B7	5.03
B8	0.29
